{"source": "paper PMC2213610", "target": "VASP, endogenous in human endothelial cells (human (endogenous in EA.hy926 and ECV304)) (UniProt P50552)", "sequence (P50552 whole entry)": "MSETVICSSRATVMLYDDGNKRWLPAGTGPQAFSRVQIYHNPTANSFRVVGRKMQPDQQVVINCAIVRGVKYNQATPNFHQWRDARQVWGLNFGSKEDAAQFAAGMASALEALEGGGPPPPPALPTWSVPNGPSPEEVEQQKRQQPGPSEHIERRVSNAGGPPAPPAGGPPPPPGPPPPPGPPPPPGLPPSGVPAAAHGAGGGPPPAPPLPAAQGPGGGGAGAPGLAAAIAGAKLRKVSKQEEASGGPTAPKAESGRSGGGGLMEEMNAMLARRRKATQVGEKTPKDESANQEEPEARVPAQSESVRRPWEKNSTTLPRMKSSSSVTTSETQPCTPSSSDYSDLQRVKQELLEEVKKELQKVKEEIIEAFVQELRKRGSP", "test": "co-IP", "data": [{"substance": "αII-spectrin (SPCN), endogenous in human endothelial cells, Q13813 1-2472", "values": [{"measurement": "percent of cellular SPCN coprecipitated", "value": "> 70", "unit": "%"}]}]}
